Data published in publication PMC7367873, “Dissecting the sequence determinants for dephosphorylation by the catalytic subunits of phosphatases PP1 and PP2A” (Nature Communications, 2020).

Columns and labels:
[1] = test system: GFP-14-3-3β and its binding proteins; assay: GFP-14-3-3β co-IP with LC-MS/MS label-free quantification, untreated versus PP1c-treated; parameters: species or system human; settings: label-free quantification
GFP-14-3-3β = GFP-14-3-3β co-IP with LC-MS/MS, untreated GFP-14-3-3β versus GFP control (14-3-3 interactome); type: binding, human; settings: label-free quantification

Molecule | Difference (log2), PP1 vs untreated ([1]; PP1 vs untreated) [log2] | Difference (log2), untreated vs GFP (GFP-14-3-3β; untreated vs GFP) [log2] | Difference (log2), PP1 vs untreated ([1]; log2 difference, pairwise comparison PP1 vs untreated, 3 replicates each) | Difference (log2), untreated vs GFP (GFP-14-3-3β; log2 difference, pairwise comparison untreated vs GFP, 3 replicates each)
FLOT2 (protein, UniProt Q14254 2-428, looked up) Flotillin-2: GNCHTVGPNEALVVSGGCCGSDYKQYVFGGWAWAWWCISDTQRISLEIMTLQPRCEDVETAEGVALTVTGVAQVKIMTEKELLAVACEQFLGKNVQDIKNVVLQTLEGHLRSILGTLTVEQIYQDRDQFAKLVREVAAPDVGRMGIEILSFTIKDVYDKVDYLSSLGKTQTAVVQRDADIGVAEAERDAGIREAECKKEMLDVKFMADTKIADSKRAFELQKSAFSEEVNIKTAEAQLAYELQGAREQQKIRQEEIEIEVVQRKKQIAVEAQEILRTDKELIATVRRPAEAEAHRIQQIAEGEKVKQVLLAQAEAEKIRKIGEAEAAVIEAMGKAEAERMKLKAEAYQKYGDAAKMALVLEALPQIAAKIAAPLTKVDEIVVLSGDNSKVTSEVNRLLAELPASVHALTGVDLSKIPLIKKATGVQV | 0.7666 | -0.7491 |  | 
C4BPA (protein, UniProt P04003 49-597, looked up) C4b-binding protein alpha …: NCGPPPTLSFAAPMDITLTETRFKTGTTLKYTCLPGYVRSHSTQTLTCNSDGEWVYNTFCIYKRCRHPGELRNGQVEIKTDLSFGSQIEFSCSEGFFLIGSTTSRCEVQDRGVGWSHPLPQCEIVKCKPPPDIRNGRHSGEENFYAYGFSVTYSCDPRFSLLGHASISCTVENETIGVWRPSPPTCEKITCRKPDVSHGEMVSGFGPIYNYKDTIVFKCQKGFVLRGSSVIHCDADSKWNPSPPACEPNSCINLPDIPHASWETYPRPTKEDVYVVGTVLRYRCHPGYKPTTDEPTTVICQKNLRWTPYQGCEALCCPEPKLNNGEITQHRKSRPANHCVYFYGDEISFSCHETSRFSAICQGDGTWSPRTPSCGDICNFPPKIAHGHYKQSSSYSFFKEEIIYECDKGYILVGQAKLSCSYSHWSAPAPQCKALCRKPELVNGRLSVDKDQYVEPENVTIQCDSGYGVVGPQSITCSGNRTWYPEVPKCEWETPEGCEQVLTGKRLMQCLPNPEDVKMALEVYKLSLEIEQLELQRDSARQSTLDKEL | 0.7487 | -1.682 |  | 
SRP68 (protein, UniProt Q9UHB9 1-627, looked up) Signal recognition particle …: MAAEKQVPGGGGGGGSGGGGGSGGGGSGGGRGAGGEENKENERPSAGSKANKEFGDSLSLEILQIIKESQQQHGLRHGDFQRYRGYCSRRQRRLRKTLNFKMGNRHKFTGKKVTEELLTDNRYLLLVLMDAERAWSYAMQLKQEANTEPRKRFHLLSRLRKAVKHAEELERLCESNRVDAKTKLEAQAYTAYLSGMLRFEHQEWKAAIEAFNKCKTIYEKLASAFTEEQAVLYNQRVEEISPNIRYCAYNIGDQSAINELMQMRLRSGGTEGLLAEKLEALITQTRAKQAATMSEVEWRGRTVPVKIDKVRIFLLGLADNEAAIVQAESEETKERLFESMLSECRDAIQVVREELKPDQKQRDYILEGEPGKVSNLQYLHSYLTYIKLSTAIKRNENMAKGLQRALLQQQPEDDSKRSPRPQDLIRLYDIILQNLVELLQLPGLEEDKAFQKEIGLKTLVFKAYRCFFIAQSYVLVKKWSEALVLYDRVLKYANEVNSDAGAFKNSLKDLPDVQELITQVRSEKCSLQAAAILDANDAHQTETSSSQVKDNKPLVERFETFCLDPSLVTKQANLVHFPPGFQPIPCKPLFFDLALNHVAFPPLEDKLEQKTKSGLTGYIKGIFGFRS | 0.7891 | 0.06806 |  | 
NUFIP2 (protein, UniProt Q7Z417 1-695, looked up) FMR1-interacting protein …: MEEKPGQPQPQHHHSHHHPHHHPQQQQQQPHHHHHYYFYNHSHNHHHHHHHQQPHQYLQHGAEGSPKAQPKPLKHEQKHTLQQHQETPKKKTGYGELNGNAGEREISLKNLSSDEATNPISRVLNGNQQVVDTSLKQTVKANTFGKAGIKTKNFIQKNSMDKKNGKSYENKSGENQSVDKSDTIPIPNGVVTNNSGYITNGYMGKGADNDGSGSESGYTTPKKRKARRNSAKGCENLNIVQDKIMQQETSVPTLKQGLETFKPDYSEQKGNRVDGSKPIWKYETGPGGTSRGKPAVGDMLRKSSDSKPGVSSKKFDDRPKGKHASAVASKEDSWTLFKPPPVFPVDNSSAKIVPKISYASKVKENLNKTIQNSSVSPTSSSSSSSSTGETQTQSSSRLSQVPMSALKSVTSANFSNGPVLAGTDGNVYPPGGQPLLTTAANTLTPISSGTDSVLQDMSLTSAAVEQIKTSLFIYPSNMQTMLLSTAQVDLPSQTDQQNLGDIFQNQWGLSFINEPSAGPETVTGKSSEHKVMEVTFQGEYPATLVSQGAEIIPSGTEHPVFPKAYELEKRTSPQVLGSILKSGTTSESGALSLEPSHIGDLQKADTSSQGALVFLSKDYEIESQNPLASPTNTLLGSAKEQRYQRGLERNDSWGSFDLRAAIVYHTKEMESIWNLQKQDPKRIITYNEAMDSPDQ | 0.7682 | 0.8112 |  | 
HNRNPF (protein, UniProt P52597 1-415, looked up) Heterogeneous nuclear …: MMLGPEGGEGFVVKLRGLPWSCSVEDVQNFLSDCTIHDGAAGVHFIYTREGRQSGEAFVELGSEDDVKMALKKDRESMGHRYIEVFKSHRTEMDWVLKHSGPNSADSANDGFVRLRGLPFGCTKEEIVQFFSGLEIVPNGITLPVDPEGKITGEAFVQFASQELAEKALGKHKERIGHRYIEVFKSSQEEVRSYSDPPLKFMSVQRPGPYDRPGTARRYIGIVKQAGLERMRPGAYSTGYGGYEEYSGLSDGYGFTTDLFGRDLSYCLSGMYDHRYGDSEFTVQSTTGHCVHMRGLPYKATENDIYNFFSPLNPVRVHIEIGPDGRVTGEADVEFATHEEAVAAMSKDRANMQHRYIELFLNSTTGASNGAYSSQVMQGMGVSAAQATYSGLESQSVSGCYGAGYSGQNSMGGYD | 0.766 | -0.6522 |  | 
ARHGEF2 (protein, UniProt Q92974 1-986, looked up) Rho guanine nucleotide …: MSRIESLTRARIDRSRELASKTREKEKMKEAKDARYTNGHLFTTISVSGMTMCYACNKSITAKEALICPTCNVTIHNRCKDTLANCTKVKQKQQKAALLKNNTALQSVSLRSKTTIRERPSSAIYPSDSFRQSLLGSRRGRSSLSLAKSVSTTNIAGHFNDESPLGLRRILSQSTDSLNMRNRTLSVESLIDEAEVIYSELMSDFEMDEKDFAADSWSLAVDSSFLQQHKKEVMKQQDVIYELIQTELHHVRTLKIMTRLFRTGMLEELHLEPGVVQGLFPCVDELSDIHTRFLSQLLERRRQALCPGSTRNFVIHRLGDLLISQFSGPSAEQMCKTYSEFCSRHSKALKLYKELYARDKRFQQFIRKVTRPAVLKRHGVQECILLVTQRITKYPLLISRILQHSHGIEEERQDLTTALGLVKELLSNVDEGIYQLEKGARLQEIYNRMDPRAQTPVPGKGPFGREELLRRKLIHDGCLLWKTATGRFKDVLVLLMTDVLVFLQEKDQKYIFPTLDKPSVVSLQNLIVRDIANQEKGMFLISAAPPEMYEVHTASRDDRSTWIRVIQQSVRTCPSREDFPLIETEDEAYLRRIKMELQQKDRALVELLREKVGLFAEMTHFQAEEDGGSGMALPTLPRGLFRSESLESPRGERLLQDAIREVEGLKDLLVGPGVELLLTPREPALPLEPDSGGNTSPGVTANGEARTFNGSIELCRADSDSSQRDRNGNQLRSPQEEALQRLVNLYGLLHGLQAAVAQQDTLMEARFPEGPERREKLCRANSRDGEAGRAGAAPVAPEKQATELALLQRQHALLQEELRRCRRLGEERATEAGSLEARLRESEQARALLEREAEEARRQLAALGQTEPLPAEAPWARRPVDPRRRSLPAGDALYLSFNPPQPSRGTDRLDLPVTTRSVHRNFEDRERQELGSPEERLQDSSDPDTGSEEEGSSRLSPPHSPRDFTRMQDIPEETESRDGEAVASES | 0.772 | 1.2 |  | 
ATXN2L (protein, UniProt Q8WWM7 1-1075, looked up) Ataxin-2-like protein: MLKPQPLQQPSQPQQPPPTQQAVARRPPGGTSPPNGGLPGPLATSAAPPGPPAAASPCLGPVAAAGSGLRRGAEGILAPQPPPPQQHQERPGAAAIGSARGQSTGKGPPQSPVFEGVYNNSRMLHFLTAVVGSTCDVKVKNGTTYEGIFKTLSSKFELAVDAVHRKASEPAGGPRREDIVDTMVFKPSDVMLVHFRNVDFNYATKDKFTDSAIAMNSKVNGEHKEKVLQRWEGGDSNSDDYDLESDMSNGWDPNEMFKFNEENYGVKTTYDSSLSSYTVPLEKDNSEEFRQRELRAAQLAREIESSPQYRLRIAMENDDGRTEEEKHSAVQRQGSGRESPSLASREGKYIPLPQRVREGPRGGVRCSSSRGGRPGLSSLPPRGPHHLDNSSPGPGSEARGINGGPSRMSPKAQRPLRGAKTLSSPSNRPSGETSVPPPPAVGRMYPPRSPKSAAPAPISASCPEPPIGSAVPTSSASIPVTSSVSDPGVGSISPASPKISLAPTDVKELSTKEPGRTLEPQELARIAGKVPGLQNEQKRFQLEELRKFGAQFKLQPSSSPENSLDPFPPRILKEEPKGKEKEVDGLLTSEPMGSPVSSKTESVSDKEDKPPLAPSGGTEGPEQPPPPCPSQTGSPPVGLIKGEDKDEGPVAEQVKKSTLNPNAKEFNPTKPLLSVNKSTSTPTSPGPRTHSTPSIPVLTAGQSGLYSPQYISYIPQIHMGPAVQAPQMYPYPVSNSVPGQQGKYRGAKGSLPPQRSDQHQPASAPPMMQAAAAAGPPLVAATPYSSYIPYNPQQFPGQPAMMQPMAHYPSQPVFAPMLQSNPRMLTSGSHPQAIVSSSTPQYPSAEQPTPQALYATVHQSYPHHATQLHAHQPQPATTPTGSQPQSQHAAPSPVQHQAGQAPHLGSGQPQQNLYHPGALTGTPPSLPPGPSAQSPQSSFPQPAAVYAIHHQQLPHGFTNMAHVTQAHVQTGITAAPPPHPGAPHPPQVMLLHPPQSHGGPPQGAVPQSGVPALSASTPSPYPYIGHPQGEQPGQAPGFPGGADDRIREFSLAGGIWHGRAEGLQVGQDARVLGGE | 0.7492 | 0.1548 |  | 
PGAM5 (protein, UniProt Q96HS1 1-289, looked up) Serine/threonine-protein …: MAFRQALQLAACGLAGGSAAVLFSAVAVGKPRAGGDAEPRPAEPPAWAGGARPGPGVWDPNWDRREPLSLINVRKRNVESGEEELASKLDHYKAKATRHIFLIRHSQYHVDGSLEKDRTLTPLGREQAELTGLRLASLGLKFNKIVHSSMTRAIETTDIISRHLPGVCKVSTDLLREGAPIEPDPPVSHWKPEAVQYYEDGARIEAAFRNYIHRADARQEEDSYEIFICHANVIRYIVCRALQFPPEGWLRLSLNNGSITHLVIRPNGRVALRTLGDTGFMPPDKITRS |  |  | 2.342 | -0.7531
